Test results taken from article PMC2998453.

Experiments:
[1] = target: mCAT-1, murine cationic amino acid transporter (ecotropic receptor) (mouse (endogenous in C17.2 NSCs and NIH 3T3 fibroblasts; Mus dunni fibroblasts in the infectious center assay)) (UniProt Q09143)
[2] = target: mCAT-1, murine cationic amino acid transporter (ecotropic receptor) (mouse (endogenous in C17.2 NSCs and NIH 3T3 fibroblasts; Mus dunni fibroblasts in the infectious center assay)) (UniProt Q09143); remark: listed apart in the source
[3] = target: mCAT-1, murine cationic amino acid transporter (ecotropic receptor) (mouse (endogenous in C17.2 NSCs and NIH 3T3 fibroblasts; Mus dunni fibroblasts in the infectious center assay)) (UniProt Q09143); remark: listed apart in the source

UniProt Q09143, sequence (Q09143 whole entry): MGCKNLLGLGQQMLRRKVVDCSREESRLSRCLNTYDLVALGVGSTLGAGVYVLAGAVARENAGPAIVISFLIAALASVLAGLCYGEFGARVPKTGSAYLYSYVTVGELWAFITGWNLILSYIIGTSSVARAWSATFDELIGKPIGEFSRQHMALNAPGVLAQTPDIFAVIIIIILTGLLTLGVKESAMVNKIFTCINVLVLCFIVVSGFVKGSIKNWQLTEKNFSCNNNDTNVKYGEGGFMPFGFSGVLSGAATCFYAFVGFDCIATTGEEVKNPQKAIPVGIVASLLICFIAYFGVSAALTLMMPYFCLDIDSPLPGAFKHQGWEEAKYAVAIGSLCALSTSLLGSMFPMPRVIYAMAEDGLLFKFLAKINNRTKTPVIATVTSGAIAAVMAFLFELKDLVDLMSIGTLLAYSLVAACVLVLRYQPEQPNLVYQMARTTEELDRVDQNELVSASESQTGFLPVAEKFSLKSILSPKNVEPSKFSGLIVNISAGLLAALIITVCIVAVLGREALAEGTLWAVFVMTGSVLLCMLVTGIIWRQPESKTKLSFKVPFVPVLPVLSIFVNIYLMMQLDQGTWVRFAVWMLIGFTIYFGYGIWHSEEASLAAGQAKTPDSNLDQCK

## CasBrE SU (surface subunit of the CasBrE Env, made from the CasES vector without the TM subunit) (domain or fragment)
[1]
  superinfection interference: reduction of the titre of the ecotropic virus Fr57E on CasES-NSCs (without 4070A) against control NSCs: 1 log
  superinfection interference: reduction of the titre of the ecotropic virus Fr57E on CasES-NSCs infected with 4070A: 5 logs
[2]
  infectious center assay: CasES+4070A-NSCs on DunniAm; infectious center efficiency (foci per 100 NSCs divided by plating efficiency): 109%
  infectious center assay: CasES+4070A-NSCs seeded on 4070A-infected dunni fibroblasts (DunniAm); vector-positive foci per 100 NSCs seeded (foci per 100 NSCs seeded): 18
[3]
  virus titration: vector titre of CasES+4070A-NSC supernatant on 4070A-infected 3T3 cells (3T3Am, amphotropic receptor blocked) against naive 3T3 cells (orders of magnitude): > 3
